Data as given in patent US20210040189A1 (Amgen, published 2021).
Where a chain is given by its changes, count along the chain named.

T1: huDkk4 (human, UniProt Q9UBT3 19-224, limits assumed)
T1 sequence (looked up): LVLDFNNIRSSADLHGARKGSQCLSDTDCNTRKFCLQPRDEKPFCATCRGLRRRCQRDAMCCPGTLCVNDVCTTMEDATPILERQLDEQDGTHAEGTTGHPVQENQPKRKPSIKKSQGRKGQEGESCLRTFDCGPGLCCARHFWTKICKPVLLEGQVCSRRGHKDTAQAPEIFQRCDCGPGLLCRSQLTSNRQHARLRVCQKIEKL

T2: CNBr1 (human, UniProt O94907 207-266)
T2 construct: Two peptides held together by 5 disulfide bonds; also called CNBr fragment of hDKK1 representing disulfide domain D2; not shown: added C-terminal flag peptide (positions 267-274)
T2 sequence 1: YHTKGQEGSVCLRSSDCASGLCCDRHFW
T2 sequence 2: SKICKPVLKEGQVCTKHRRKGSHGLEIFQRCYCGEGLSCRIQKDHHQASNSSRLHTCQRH

T3: T2 (human)
T3 construct: Five peptides held together by the five disulfide bonds of D1; from trypsin digestion of HuDKK1 alone; also called tryptic D1 fragment T2
T3 chain 1: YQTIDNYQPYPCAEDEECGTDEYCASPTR
T3 chain 2: GGDAGVQICLACR
T3 chain 3: CMR
T3 chain 4: HAMCCPGNYCK
T3 chain 5: NGICVSSDQNHFR

T4: T3 (human)
T4 construct: a separate HPLC peak; also called tryptic D1 fragment T3
T4 chain 1: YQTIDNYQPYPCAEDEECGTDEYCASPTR
T4 chain 2: GGDAGVQICLACR
T4 chain 3: CMR
T4 chain 4: HAMCCPGNYCK
T4 chain 5: NGICVSSDQNHFR

T5: AspN1 (human)
T5 construct: Two peptides held together by five disulfide bonds in D1
T5 chain 1: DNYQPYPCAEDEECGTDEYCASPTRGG
T5 chain 2: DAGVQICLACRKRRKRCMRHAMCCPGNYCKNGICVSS

T6: AspN2 (human)
T6 construct: a separate HPLC peak
T6 chain 1: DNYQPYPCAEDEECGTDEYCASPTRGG
T6 chain 2: T5 chain 2

T7: human DKK1 (human, UniProt O94907 32-266)
T7 construct: also called huDKK1; hDKK1
T7 sequence: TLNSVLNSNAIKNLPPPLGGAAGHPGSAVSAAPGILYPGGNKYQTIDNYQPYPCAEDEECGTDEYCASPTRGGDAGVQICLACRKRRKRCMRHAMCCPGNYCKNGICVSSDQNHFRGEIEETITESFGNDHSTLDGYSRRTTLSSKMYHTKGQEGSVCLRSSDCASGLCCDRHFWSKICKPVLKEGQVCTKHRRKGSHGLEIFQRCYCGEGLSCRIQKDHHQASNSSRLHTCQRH

T8: T4 (human)
T8 construct: also called tryptic D1 peptide T4
T8 chain: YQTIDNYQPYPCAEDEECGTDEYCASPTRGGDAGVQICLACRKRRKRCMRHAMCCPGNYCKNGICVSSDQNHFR

T9: mouse DKK1 (mouse, UniProt O54908 32-272)
T9 construct: also called murine DKK1
T9 sequence: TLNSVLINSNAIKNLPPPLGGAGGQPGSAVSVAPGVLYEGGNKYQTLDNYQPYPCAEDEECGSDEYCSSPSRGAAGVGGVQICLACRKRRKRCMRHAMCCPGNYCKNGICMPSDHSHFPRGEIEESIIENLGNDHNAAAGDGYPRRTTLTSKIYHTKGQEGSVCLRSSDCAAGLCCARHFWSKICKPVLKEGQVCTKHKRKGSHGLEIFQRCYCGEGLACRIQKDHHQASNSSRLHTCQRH

T10: cynomologous DKK1 (cynomolgus monkey, UniProt O94907 32-266 (human entry), limits assumed)
T10 construct: also called cyno DKK1
T10 chain: T7 sequence with H114N, T150S, S166T, D171A

B1: 5.25.1 (antibody, V domains shown)
VH: QVQLVQSGAEVKKPGASVKVSCKASGYTFTSYDINWVRQATGQGLEWMGWMDPNSGNTGYAQKFQGRVTMTRNTSISTAFMELSSLRSEDTAVYYCARTDYFYFGMDVWGQGTTVTVSS
VL: DIQMTQSPSSLSASVGDRVTITCQASQDISKDLNWYQQKPGKAPRLLIYDASNLETGVPSRFSGSGSGTDFTFTISSLQPEDIATFYCQQYDHLPIAFGQGTRLEIK
notes: Fully human hybridoma IgG, kappa (Vk)
B2: 5.32.1 (antibody, V domains shown)
VH: QVQLVQSGAEVKKPGASVKVSCKASGFTFTSYDISWVRQATGLGLEWMGWMNPSSGYTGYAQNFQGRVTMTWNTSISTVYMELSSLRSEDTAVYYCARTDYYYYGMDVWGRGTTVTVSS
VL: B1 VL with R45K, F86Y, H93D, A97T
notes: as for B1
B3: 6.116.6 (antibody, V domains shown)
VH: QVQLVESGGGVVQPGRSLRLSCAASGFTFSGYGMHWVRQAPGKGLEWVAVISYDGNDKYYADSVKGRFTISRDNAKNTLYLQMNSLRAEDTAVYYCARELRVLWGQGTLVTVSS
VL: DIVMTQTPLSLSVTPGQPASISCKSGQSLLHNDGKTYLYWYLQKPGQPPQFLIYEVSNRFSRVPDRFSGSGSGTDFTLKISRVEAEDVGIYYCMQSIQLPWTFGQGTQVEIK
notes: Fully human IgG, kappa (Vk)
B4: 2.40.1 (antibody, V domains shown)
VH: QVQLVESGGGVVQPGRSLRLSCAASGFTFSSYGMHWVRQAPGKGLGWVAVISYDGSDKYYADSVKGRFTISRDNSKNTLYLQMNSLRAEDTAVYYCARDLVDTAMPWGQGTTVTVSS
VL: B3 VL with T7S, G26S, N32S, F51L, R62G, I90V, L99V, Q108K
notes: as for B1
B5: 6.37.5 (antibody, V domains shown)
VH: B3 VH
VL: B3 VL with N32S, K79R
notes: Fully human IgG, kappa (Vk)

How the values were obtained:
[1] = molecular target: T1, huDkk4; assay: BiaCore
[2] = molecular target: T2, CNBr1; assay: BiaCore
[3] = molecular target: T3, T2; assay: BiaCore
[4] = molecular target: T4, T3; assay: BiaCore
[5] = molecular target: T5, AspN1; assay: BiaCore
[6] = molecular target: T6, AspN2; assay: BiaCore
[7] = molecular target: T7, human DKK1; assay: BiaCore 2000
From the text: BiaCore allowed us to determine the kd of the selected antibodies.

[8] = molecular target: T7, human DKK1; assay: cell-based or functional assay
[9] = molecular target: T8, T4; assay: BiaCore, competition with surface-bound DKK1
[10] = molecular target: T7, human DKK1; assay: KinExA 3000 equilibrium binding in solution
Experimental: (§1) Accordingly, the affinity of several of these antibodies to DKK1 was further assessed by an equilibrium binding analysis using the more sensitive KinExAtm 3000. For these measurements, Reacti-Gel 6× beads (Pierce, Rockford, Ill.) were pre-coated with human, cynomologous or mouse DKK1 and blocked with BSA. One hundred pM, 300 pM, or 1000 pM of the antibody was mixed with various concentrations of human, mouse or cyno DKK1, ranging in concentration from 1 pM to 50 nM, and equilibrated at room temperature for 8 hours. The mixtures were then passed over the DKK1-coated beads. The amount of bead-bound anti-DKK1 antibody was quantified using goat anti-human-IgG antibody labeled with a fluorescent tag (Cy5; Jackson Immuno Research, West Grove, Pa.). The amount of fluorescent signal measured was proportional to the concentration of free anti-DKK1 antibody in each reaction mixture at equilibrium. The dissociation equilibrium constant (Kd) was obtained from nonlinear regression of the competition curves using a dual-curve one-site homogeneous binding model using the KinExA software.

[11] = molecular target: T9, mouse DKK1; assay: KinExA 3000 equilibrium binding in solution
Experimental: as §1

[12] = molecular target: T10, cynomologous DKK1; assay: KinExA 3000 equilibrium binding in solution
Experimental: as §1

Row | Binder | binding result [1] | binding result [2] | binding result [3] | binding result [4] | binding result [5] | binding result [6] | koff [7] | ST2 EC50 [8] | TCF EC50 [8] | binding result [9] | Kd [10] | Kd [11] | Kd [12]
1 | B1 | no binding | no binding | no binding | no binding | binds | binds | < 2e-05 s⁻¹ | 5.96 nM | 1.88 nM | binds | 0.003 nM | 0.15 nM | 
2 | B2 | no binding |  |  |  |  |  | 0.000191 s⁻¹ | 3.48 nM | 1.01 nM |  | 0.003 nM | 0.04 nM | 
3 | B3 |  |  |  |  |  |  | 2e-05 s⁻¹ | 2.77 nM | 4.69 nM |  | 0.025 nM | 0.04 nM | 0.04 nM
4 | B4 |  |  |  |  |  |  | 6.27e-05 s⁻¹ | 2.47 nM | 1.28 nM |  | 0.22 nM | 0.48 nM | 0.22 nM
5 | B5 |  |  |  |  |  |  | 4e-05 s⁻¹ | 3.98 nM | 6.57 nM |  | 0.03 nM | 0.05 nM | 0.035 nM
